Laboratory results reported in patent publication US20190338029A1 (Y BIOLOGICS, published 2019).

T1: hCD3εγ chains
T1 construct: copies: 1 + 1
T1 epsilon: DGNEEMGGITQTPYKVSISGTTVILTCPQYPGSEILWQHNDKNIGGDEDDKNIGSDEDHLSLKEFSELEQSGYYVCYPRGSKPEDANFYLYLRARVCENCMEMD
T1 gamma: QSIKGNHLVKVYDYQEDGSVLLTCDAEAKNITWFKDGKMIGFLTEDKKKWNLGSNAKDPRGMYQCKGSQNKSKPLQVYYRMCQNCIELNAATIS

T2: hCD3εε chains
T2 epsilon: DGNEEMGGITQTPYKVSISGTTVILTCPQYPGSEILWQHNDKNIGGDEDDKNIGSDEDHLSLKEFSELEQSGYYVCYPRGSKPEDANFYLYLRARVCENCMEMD


Key:
[1] = target: T3, PD-L1 (PD-1/PD-L1 Blockade Bioassay kit, Promega) (UniProt Q9NZQ7 19-290, limits assumed); test: cell-based or functional assay
[2] = target: T1, hCD3εγ chains; test: ELISA on hCD3εγ chains, curve fit of a flat curve
Procedure: (§1) Next day, plate was washed once with 200 μl of PBST, and then a surface blocking was performed at room temperature with 5% skim milk for 1-2 hours. […] Each well was then washed three times with 200 μl of PB ST to remove unbound samples. Horseradish peroxidase (HRP)-conjugated anti-human IgG (Fab specific) antibodies (Sigma, USA) were added to wells at a ratio of 1:1000 for a reaction at room temperature. After three times of washing with 200 ul of PBST, a color reaction of HRP was induced using TMB solution (GEhealthcare, USA) in a volume of 10 μl/well. The reaction was terminated by using a stop solution (2.5 M H2504, 100 μl/well). A spectrophotometer was used to measure the absorbance at a wavelength of A450 to calculate the binding affinity.

[3] = target: T2, hCD3εε chains; test: ELISA on hCD3εε chains
Procedure: as §1

[4] = target: T3, PD-L1 (PD-1/PD-L1 Blockade Bioassay …); test: cell-based or functional assay; remark: listed apart in the source
[5] = target: CD3 (Sino Biological); test: ELISA on CD3, curve fit
Procedure: as §1

[6] = target: T4, human PD-L1 (human, UniProt Q9NZQ7 19-238, limits assumed); test: label-free kinetics on OCTET QKe, PD-L1 on AHC biosensor; PD-L1 fixed on AHC biosensor (OCTET QKe)
T4 construct: also called hPD-L1
Procedure: (§2) Measurement of label-free kinetics (protein-protein interaction) using OCTET® QKe system (ForteBio, USA) was performed by using an anti-human IgG capture (AHC) biosensor (ForteBio, USA) for human PD-L1 and amine reactive (ARG2) biosensor for CD3εδ chains. […] Sensorgrams were collected over time.

[7] = target: T1, hCD3εγ chains; test: ELISA on hCD3εγ chains, curve fit
Procedure: as §1

[8] = target: T5, CD3 on Jurkat luciferase reporter cells (Homo sapiens (Human), UniProt P07766 23-207; P09693 23-182; P04234 22-171); test: flow cytometry on Jurkat_NFAT_Luc2P cells, FITC-A; histogram shifted to about 10^3
T5 construct: also called CD3 positive Jurkat cell line with NFAT luciferase reporter

[9] = target: T4, human PD-L1; test: label-free kinetics on OCTET QKe (called SPR in the text), PD-L1 on AHC biosensor
Procedure: as §2

T3 sequence (Q9NZQ7 19-290 limits assumed): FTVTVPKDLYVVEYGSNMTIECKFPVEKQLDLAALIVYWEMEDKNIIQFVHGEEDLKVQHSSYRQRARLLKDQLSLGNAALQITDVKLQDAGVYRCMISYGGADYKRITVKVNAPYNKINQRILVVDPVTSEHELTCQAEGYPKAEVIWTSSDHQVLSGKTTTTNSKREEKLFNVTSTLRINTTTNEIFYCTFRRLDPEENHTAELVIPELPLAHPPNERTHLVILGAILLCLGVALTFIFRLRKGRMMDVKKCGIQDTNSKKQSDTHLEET
T4 sequence (Q9NZQ7 19-238 limits assumed): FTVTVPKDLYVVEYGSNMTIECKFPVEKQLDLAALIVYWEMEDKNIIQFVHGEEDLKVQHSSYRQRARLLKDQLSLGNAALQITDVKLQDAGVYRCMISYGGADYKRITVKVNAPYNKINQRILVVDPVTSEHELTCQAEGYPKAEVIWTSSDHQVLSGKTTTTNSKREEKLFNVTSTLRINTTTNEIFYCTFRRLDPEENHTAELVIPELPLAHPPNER

Row | Binder | EC50; luciferase RLU in the PD-1/PD-L1 Blockade Bioassay, blocked partner PD-1 [1] [nM] | EC50 (read off the curve); luciferase RLU in the PD-1/PD-L1 Blockade Bioassay, blocked partner PD-1 [4] [µg/mL] | Bmax [5] [O.D. 450 nm] | Kd [5] [nM] | other results
1 | ACE-05 (bispecific antibody, Contains a GGGGS linker between the hinge and the Fv; also called ALiCE molecule ACE-05) heavy 1: not shown heavy 2: not shown light: QLVLTQPPSVSGAPGQRVTISCTGSSSNIGAGYDVHWYQQLPGAAPKLLIYGDINRPSGVPDRFSGSKSGISASLAITGLQAEDEADYYCQSYDSSLSGGVFGGGTKLTVLRTVAAPSVFIFPPSDEQLKSGTASVVCLLNNFYPREAKVQWKVDNALQSGNSQESVTEQDSKDSTYSLSSTLTLSKADYEKHKVYACEVTHQGLSSPVTKSFNRGEC | 0.00429 | ~0.02 | 3.97 | 17.6 | Kd (fit value of a flat curve) [2]: 0.035 nM; binding result [3]: no binding (tested: 100 nM); Kd [6]: < 0.0109 nM
2 | ACE-05-VL2 (other) heavy: not shown light: QLVLTQPPSVSGAPGQRVTISCTGSSSNIGAGYDVHWYQQLPGAAPKLLIYGDINRPSGVPDRFSGSKSGISASLAITGLQAEDEADYYCQSYDSSLSGGVFGGGTKLTVLRTVAAPSVFIFPPSDEQLKSGTASVVCLLNNFYPREAKVQWKVDNALQSGNSQESVTEQDSKDSTYSLSSTLTLSKADYEKHKVYACEVTHQGLSSPVTKSFNRGEC | – | ~0.08 | – | – | –
3 | ACE-09 (bispecific antibody) heavy 1: not shown heavy 2: not shown light: QLVLTQPPSVSGAPGQRVTISCTGSSSNIGAGYDVHWYQQLPGAAPKLLIYGDINRPSGVPDRFSGSKSGISASLAITGLQAEDEADYYCQSYDSSLSGGVFGGGTKLTVLRSVAAPSVFIFPPSDEQLKSGTASVVCLLNNFYPREAKVQWKVDNALQSGNSQESVTEQDSKDSTYSLSSTLTLSKADYEKHKVYACEVTHQGLSSPVTKSFNRGEC | – | – | 4.04 | 21.1 | –

Second part, led by results:

Row | EC50; luciferase RLU in the PD-1/PD-L1 Blockade Bioassay, blocked partner PD-1 [1] [nM] | EC50 (read off the curve); luciferase RLU in the PD-1/PD-L1 Blockade Bioassay, blocked partner PD-1 [4] [µg/mL] | Bmax [5] [O.D. 450 nm] | Kd [5] [nM] | Binder | other results
4 | – | – | 3.67 | 2.69 | UCHT1 (an anti-CD3 antibody from BioLegend, USA) (antibody, V domains shown, Bought antibody; also called parental anti-CD3 antibody) VH: EVQLQQSGPELVKPGPSMKISCKASGYSFTGYTMNWVKQSHGKNLEWMGLINPYKGVSTYNQKFKDKATLTVDKSSSTAYMELLSLTSEDSAVYYCARSGYYGDSDWYFDVWGQGTTLTVFS VL: DIQMTQTTSSLSASLGDRVTISCRASQDIRNYLNWYQQKPDGTVKLLIYYTSRLHSGVPSKFSGSGSGTDYSLTISNLEQEDIATYFCQQGNTLPWTFAGGTKLEIKR | Kd [7]: 33.3 nM; Fold [8]: 35 fold over hIgG
5 | 0.0112 | ~0.05 | – | – | YBL-007 (antibody, V domains shown, also called parental anti-PD-L1 antibody; anti-hPD-L1 antibody) VH: QMQLVQSGAEVKKPGSSVKVSCKASGGTFSSYAISWVRQAPGQGLEWMGRIIPILGIANYAQKFQGRVTITADKSTSTAYMELSSLRSEDTAVYYCAKPRDGYNLVAFDIWGQGTMVTVSS VL: QLVLTQPPSVSGAPGQRVTISCTGSSSNIGAGYDVHWYQQLPGAAPKLLIYGDINRPSGVPDRFSGSKSGISASLAITGLQAEDEADYYCQSYDSSLSGGVFGGGTKLTVLR | Kd [9]: 0.0132 nM
